Legend:
Soybean agglutinin (SBA) = Soybean agglutinin (SBA) (UniProt P05046)
[1] = target: T1, soybean Kunitz trypsin inhibitor (UniProt P01070)
T1 sequence: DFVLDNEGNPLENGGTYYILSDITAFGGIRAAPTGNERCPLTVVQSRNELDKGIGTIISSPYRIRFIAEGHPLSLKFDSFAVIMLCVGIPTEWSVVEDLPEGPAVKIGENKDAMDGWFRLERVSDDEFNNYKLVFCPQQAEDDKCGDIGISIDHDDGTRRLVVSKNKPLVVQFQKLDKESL

[2] = target: T2, soybean Bowman-Birk inhibitor (UniProt P01055)
T2 sequence: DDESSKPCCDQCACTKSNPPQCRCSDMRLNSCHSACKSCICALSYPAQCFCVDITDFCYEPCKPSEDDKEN

Chain of Soybean agglutinin (SBA) (P05046 33-285): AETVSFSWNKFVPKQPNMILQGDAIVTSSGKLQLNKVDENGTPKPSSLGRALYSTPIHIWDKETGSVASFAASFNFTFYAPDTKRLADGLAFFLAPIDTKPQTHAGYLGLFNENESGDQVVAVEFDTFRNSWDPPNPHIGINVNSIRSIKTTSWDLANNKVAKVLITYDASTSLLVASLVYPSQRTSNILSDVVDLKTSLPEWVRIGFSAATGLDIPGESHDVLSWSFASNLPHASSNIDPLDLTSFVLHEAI

## protease from Nocardiopsis sp. NRRL 18262
Soybean glycinin
  Percentage degradation of isolated soy proteins: 98%
Soybean agglutinin (SBA)
  Percentage degradation of isolated soy proteins: 100%
[1]
  Percentage degradation of isolated soy proteins: 94%
Soybean beta-conglycinin
  Percentage degradation of isolated soy proteins: 95%
[2]
  Percentage degradation of isolated soy proteins: 35%
